One data set concerns the target Ddn (Mycobacterium tuberculosis, UniProt P9WP15). The experiment in a line: F420H2 oxidation, absorbance at […] nm.
In the next data set the test system is CC1=CC(=O)c2ccccc2C1=O. The experiment in a line: purified protein.
Data set [1] deals with COC1=C(OC)C(=O)C(C/C=C(\C)CCC=C(C)C)=C(C)C1=O. The experiment in a line: purified protein. The settings on record: pH 8.0.
For data set [2], the system named is COC1=C(OC)C(=O)C(CC=C(C)C)=C(C)C1=O. The experiment in a line: purified protein. The conditions noted are these: pH 8.0.
Data set [3] relates to COC1=C(OC)C(=O)C(C)=CC1=O. The experiment in a line: purified protein. The settings on record: pH 8.0.
Data set [4] relates to CC1=C(C)C(=O)c2ccccc2C1=O. Briefly: purified protein. The conditions noted are these: pH 8.0.
[5] abbreviates: co-substrate 100 μM F420H2, 200 mM Tris-HCl pH 8.0, 0.01% Triton X-100.

A word on the Km: it is the concentration of substrate that gives half-maximal velocity. Broadly, the kcat/Km is the second-order rate constant that governs catalysis at low substrate concentration.

Like-named read-outs stand apart in the source and are kept apart here.

Chain of Ddn (P9WP15 whole entry): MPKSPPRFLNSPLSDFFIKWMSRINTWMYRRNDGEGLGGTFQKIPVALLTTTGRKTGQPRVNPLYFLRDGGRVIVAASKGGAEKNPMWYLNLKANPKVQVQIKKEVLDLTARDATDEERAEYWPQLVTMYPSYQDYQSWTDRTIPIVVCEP

Take `O=C1C=CC(=O)c2ccccc21` [1,4-naphthoquinone]: on Ddn (setting [5]), the Km turned out to be 2.23 ± 1.19 µM.
As for `O=[N+]([O-])c1cn2c(n1)OC[C@@H](OCc1ccc(OC(F)(F)F)cc1)C2` [PA-824], on Ddn, the Km came out at 28.6 ± 3.55 µM.
Consider `CC1=CC(=O)c2c(O)cccc2C1=O` [Plumbagin], for which the Km on Ddn (setting [5]) came to 2.17 ± 2.74 µM.
In the case of (Mycobacterium tuberculosis H37Rv), the Km with CC1=CC(=O)c2ccccc2C1=O is 2.09 ± 0.91 µM; in the data set with CC1=CC(=O)c2ccccc2C1=O (pH 8.0), 3.44 ± 1.27 µM; in data set [1] it was 3.14 ± 0.97 µM; in data set [2], 10.12 ± 2.23 µM; in data set [3] it was 12.35 ± 2.65 µM; in data set [4], 2.21 ± 0.98 µM. Also, the kcat/Km in the data set with CC1=CC(=O)c2ccccc2C1=O was found to be 255000 M⁻¹ s⁻¹; in the data set with CC1=CC(=O)c2ccccc2C1=O (pH 8.0), 86000 M⁻¹ s⁻¹; in data set [1], 28800 M⁻¹ s⁻¹; in data set [2], 3500 M⁻¹ s⁻¹; in data set [3] it was 1670 M⁻¹ s⁻¹; in data set [4], 40500 M⁻¹ s⁻¹.

The values are drawn from publication PMC3567243 (Molecular Microbiology, 2012).
